# Results: the DeepSol protein solubility set
# Experiment: soluble on expression in E. coli; label from the status in PepcDB or PDB records
row,Sequence,soluble on expression in E. coli
1,MSLDLETDVVAGTAERKGSAEGKVEIEDRHVTKVSLPVQVVTGDENTLCYYTAIFDGHDGSSCAQYATVNLHKNLISLYRQIYSTVQRRKFLSVGLEALVKATAKSFFMTDHNFLDSARKSGVEQDAGSTACVVLLFGPDDDGQLKLLTAHAGDTRAVLCRDDRALRLTEDHRPNHKLEQRRVQQNGGEVMNIEGVWRVIFVDRKTNRLFGLATSRALGDRRMKVPKKLVTCQPTLHVYAINFETDLFLVLASDGIWDVLSDEEVVAIVSEHLDKPPQEAARFVIDEAVKRGSEDDKTCTVLFFKWRRDRFPSEGHHHHHH,soluble
2,MSLDLSLNNLYSISTVELIQAFANTPASVTSLNLSGNSLGFKNSDELVQILAAIPANVTSLNLSGNFLSYKSSDELVKTLAAIPFTITVLDLGWNDFSSKSSSEFKQAFSNLPASITSLNLRGNDLGIKSSDELIQILAAIPANVNSLNLRGNNLASKNCAELAKFLASIPASVTSLDLSANLLGLKLEHHHHHH,not soluble
3,MSLDMNKPEGFDCPGCAWPDPKHSASFDICENGAKAIAWEVTDKQVNASFFAENTVQSLLTWGDHELEAAGRLTQPLKYDAVSDCYKPLSWQQAFDEIGARLQSYSDPNQVEFYTSGRTSNEAAFLYQLFAREYGSNNFPDCSNMCHEPTSVGLAASIGVGKGTVLLEDFEKCDLVICIGHNPGTNHPRMLTSLRALVKRGAKMIAINPLQERGLERFTAPQNPFEMLTNSETQLASAYYNVRIGGDMALLKGMMRLLIERDDAASAAGRPSLLDDEFIQTHTVGFDELRRDVLNSEWKDIERISGLSQTQIAELADAYAAAERTIICYGMGITQHEHGTQNVQQLVNLLLMKGNIGKPGAGICPLRGHSNVQGDRTVGITEKPSAEFLARLGERYGFTPPHAPGHAAIASMQAICTGQARALICMGGNFALAMPDREASAVPLTQLDLAVHVATKLNRSHLLTARHSYILPVLGRSEIDMQKNGAQAVTVEDSMSMIHASRGVLKPAGVMLKSECAVVAGIAQAALPQSVVAWEYLVEDYDRIRNDIEAVLPEFADYNQRIRHPGGFHLINAAAERRWMTPSGKANFITSKGLLEDPSSAFNSKLVMATVRSHDQYNTTIYGMDDRYRGVFGQRDVVFMSAKQAKICRVKNGERVNLIALTPDGKRSSRRMDRLKVVIYPMADRSLVTYFPESNHMLTLDNHDPLSGIPGYKSIPVELEPSNEGHHHHHH,soluble
4,MSLDNDTVKVGDLVQINLPGEASLNQGFQVDRRGRINLPEIGPVFVAGYNEQQLQDVIIETLKTVYRDVNNARVFIKQQQLLVSVQGYVVKPGEYTLPAGSNIQMFVYEAGGLRAGAQLDKMIVKRGDQNIEFDYKRFLDTGDNEGHHHHHH,soluble
5,MSLDNIERTLGQLFEGRDFEKEYQGLKQQVLHYQPIQDFFKEHKEEVTEQLVNQNLSNLYEFMTQHKKFTEQEETLMPGYAPKLVLNGEFITVTYYPTKEKIEEDKRRAVERRIRSLYMPKQVVDANLADFYTDEESRQLALVEAYQFLNNYPPKSGERVKGLFIHGSFGTGKSYLLGALAKELALKGISSTLVYLPEFMREVKQSISDNTVGEKIQFAKETEVLMLDDIGAESMTAWTRDEVLGAILQFRMQEELPTFFSSNYNMDQLENHLMFAQNGTEEKLKARRIMERVRYLSKEVNLEGEGHHHHHH,soluble
6,MSLDQAAVCLTICRINQLLSPSLLLKWWKADPSMSLTSPVLQTVTRDQIKAAALKNEIEQFYPKLPRVLAAYREQGINTIPISSKQYPFWLKSIYDPPAVLFAKGDMTLLSKGRKIGIVGTRNPTAYGKQVVNHLTKEICRKGWVIVSGLASGIDGMSHAASIKAKGRTIGVIAGGFQHIYPRENLQLADHMAKHHILLSEHPPETKPQKWHFPMRNRIISGLSEGVIVVQGKEKSGSLITAYQALEQGREVFAVPGSLFDPYAGGPIKLIQQGAKAIWSAEDIFEELPERNVQYTEPFEGHHHHHH,not soluble
7,MSLDQIKIAYIGGGSQGWARSLMSDLSIDERMSGTVALYDLDFEAAQKNEVIGNHSGNGRWRYEAVSTLKKALSAADIVIISILPGSLDDMEVDVHLPERCGIYQSVGDTVGPGGIIRGLRAVPIFAEIARAIRDYAPESWVINYTNPMSVCTRVLYKVFPGIKAIGCCHEVFGTQKLLAEMVTERLGIEVPRREDIRVNVLGINHFTWITKASYRHIDLLPIFREFSAHYGESGYELEGECWRDSVFCSAHRVAFDLFETYGAIPAAGDRHLAEFLPGPYLKQPEVWKFHLTPISFRKQDRAEKRQETERLIVQQRGVAEKASGEEGVNIIAALLGLGELVTNVNMPNQGQVLNLPIQAIVETNAFITRNRVQPILSGALPKGVEMLAARHISNQEAVADAGLTKDTGLAFQAFLNDPLVQIDRSDAEQLFNDMLQCIMQSEGHHHHHH,soluble
8,MSLDRVEEQRITIPDFQKLVEAQTGSEISMDDFYPASSVRPISDFVAAIEGEPQVTFTCHQHCGTATYIFLEDDKIIPITRFIDVDRFFEVLEKGKDEIEEGGIAAKARVIARSAIELPKTLDKSEAPESVDIKRILTSIFKERSYTALGEFHYNTLLISCMHFMDPWNFDIDRVRRCVIHYALPDGRIVPFCTMNSIHRADVERHFAKPLNESKEGHHHHHH,not soluble
9,MSLDSFLDIQRKKADADSKFIDCNGFRVHYKRYGSGKPPFIVLLHGSFLSIRSWRDVAVPLAENATVLAFDRPAFGLTSRPVPSRSNAARYSPEAQSDLVVALMDKLGMDRAVIVGNSTGGTLALLTALRHPRRVQGLVLVGAMIYSGYANSEVPAVMKPFMKAMSPVFSRLMKVIITKLYDKNIRGFWHVKSRLSDETLAAFRNDFMVGDWSRGFWELFLETHRLYFNRRVSSAWAPSLVVTGEHDLTVKTEESFRLARELPRAELLVIPDCAHLPQEEQPAAFVAGVKKFVEKLVEGHHHHHH,soluble
10,MSLDTDREQILAEFLSIDRTKVRRIEHHRCHAAYSYYASKYRNKPILALTVDGWGDGKDATIGIFDEKGKYSRVYESDQCAIGRIYRYMTLMLGMKPNEHEFKVMGLAPYGKETHAKKALDILRNTLYVDGEEFKWKEKPKDSYFWFKERFEGVRFDNIAFALQKWTEELLVEWVKNAINKYKIHDIVISGGVAMNIKAMGKIADLPEVKSLFIGGSASDESMAISSGICLAEDLTKESSREWNSNTIESLTRLYLGPSASLKEEERVVDGLDKKKFEIIENPENKRIAEVLFEGKILARAAGRMEFGQRALGNRSILADPIHLKIKEKINSAIKSRDFWMPFAPVVMDTFVERYLLNPKSLESPHMTLSFDTTEEGYDAMSAACHPADRTARAQILKEHDNPELYSLLKAFQHLTGRGALLNTSFNLHGFPIVNSPSEAVDVLVNSGLDGLILNYFLILKKEGHHHHHH,not soluble
11,MSLDTNNALARFFDSSGYNANVSNPSAYQGQSANYYTGGSLFVRTPIVDAQLVSVTVPSISAGCSGIDMFMGGFSHVSSDQLVKVGKAIIHNAPPFIVNLALQTWAPQLKQNLDNLQAIADKYLNQSVNSCEAAQAAIGGLAAFAAPATKKHVCATLGTQNNAFSDWVQAQHECGAGGKAAGQLANAKNDPALKDITKTNHNVVWSAIMNNAFLSADKHLAQFMMSLSGTYVYDANGNPRYYPSLLTDNNNLVNVLLEGGKADIYQCRNTDPKACITITKPNNLSISQANGIQSQISKQLESILRHIATDQKLTDKQKSFLELTQTPVLKFFMDDLSANQTPDINSYSRMIAVELLNQYLTNMLSIASQSLANTNNSVEDIALITRDIDNAKRFTTGLADKAIETLNQRNQLIESQRKTAQRSQKDIGITTKPTQAYGNEGHHHHHH,not soluble
12,MSLDVPAMPERVETQGVEFVEFSTAPEEKANLEVLLATLGFEKSAQHRNRAVDLYTQGDIRIVINTSDDGDSFAGASYSIHGTNAYAFGLKVDDAQAALARAEALGAPTFAEPRNTGEVAVPAIQGVGNGVIYFLDASPALASIWDKEFVPTQGQKAMSDAGLTRVDHLAQTTHYDEMLTWLLFYTSLFSSRRTPMIDVVDPGGLVRSQAIESVPAANFRLTMNGADNRKTFAGKFLAEGFGSSIQHIAFATDDIFATAKAMQARGFHALPISRNYYDDLEARFGLEPEFSDALREASILYDRDDSGEYFQIYSRTFGEGFFFEVIERRGAYGGYGAMNAPFRIAAQRRLAEGHHHHHH,soluble
13,MSLDVTLTQPSIPDQSEDRRVRTSGSLAGHLPYGMADTLGKHEHLSTVDLVVPRFNASETEMLLGLFDGQALSSGGSKIAKYLHENFGHIFALELKALKTRLNETPVDALRRAFLALNKDLVTIAIQQSEERPIQTHRNSGQPIILTKEDLNSGGVATVVYLQSTELYVANVGDAQAMVIQTDGTHKMLTRKHDPAEPTERSRIREAGGWVSRNGRLNDLLQVSRAFGYVDLMPAVQAAPYVSNMTIREQDDIILIATGELWEYLSPGLVTDVARAERQDLMRAAQKLRDLAIAYGASGKIMVMMISVADEGHHHHHH,soluble
14,MSLEDNERVDHLIKEGYEIIQNDEVFSFSTDALLLGYLTEVRKNDKVMDLCSGNGVIPLLLAAKSTQPIEGIEIQEQLVSMARRSFKLNDLNDRLTMHHMDLKDVYQTFQPAQYTLVTCNPPYFKMNQNHQHQKEAHKIARHEIMCNLKDCIEAARHLLKEGGRFIMVHRAERLMDVLTELRHGKIEPKALTLVYSKHDKPAQTIVVEGRKGGNQGLDIRNPLYIYNEDGSYSDEMKGVYYGEGHHHHHH,soluble
15,MSLEIADLKVHFDIKEGKQWFWQPPKTLKAVDGVTLRLYEGETLGVVGESGCGKSTFARAIIGLVKATDGKVAWLGKDLLGMKADEWREVRSDIQMIFQDPLASLNPRMTIGEIIAEPLRTYHPKLSRQDVRDRVKAMMLKVGLLPNLINRYPHEFSGGQCQRIGIARALILEPKLIICDEPVSALDVSIQAQVVNLLQQLQREMGLSLIFIAHDLAVVKHISDRVLVMYLGHAVELGTYDEVYHNPLHPYTKALMLAVPIPDPDLERNKKIQLLEGELPSPINPPSEGHHHHHH,soluble
16,MSLEIHFEKVTSDNRKAVENLQVFAEQQAFIESMAENLKESDQFPEWESAGIYDGNQLIGYAMYGRWQDGRVWLDRFLIDQRFQGQGYGKAACRLLMLKLIEKYQTNKLYLSVYDTNSSAIRLYQQLGFVFNGELDTNGERVMEWTHQNKEGGSHHHHHH,soluble
17,MSLEIIPVIDLMNGLAVSGKSGNRKEYVPIKSVLCDSSDPHDVIKKYNENGAKKVYIADLNSIMGTGNNFEIVKSLDIFKIVDFGVTDKKDLENVKKCVNMTILGTETLNDISILKEGNIILSLDFKDGKLLNYDLDDILSKVDKKTPLIILDISSVGTQKGINVELIKDILKKTDNPIYIGGGIKSEDDLKISKELGISGVLIGTTIHNGKLDLKKIIQKYGEGHHHHHH,soluble
18,MSLEITNPILTGFNPDPSLCRQGEDYYIATSTFEWFPGVRIYHSRDLKNWSLVSTPLDRVSMLDMKGNPDSGGIWAPCLSYADGKFWLLYTDVKIVDSPWKNGRNFLVTAPSIEGPWSEPIPMGNGGFDPSLFHDDDGRKYYIYRPWGPRHHSNPHNTIVLQAFDPQTGTLSPERKTLFTGTPLCYTEGAHLYRHAGWYYLMAAEGGTSYEHAVVVLRSKNIDGPYELHPDVTMMTSWHLPENPLQKSGHGSLLQTHTGEWYMAYLTSRPLRLPGVPLLASGGRGYCPLGRETGIARIEWRDGWPYVEGGKHAQLTVKGPQVAEQPAAVPGNWRDDFDASSLDPELQTLRIPFDDTLGSLTARPGFLRLYGNDSLNSTFTQSTVARRWQHFAFRAETRMEFSPVHFQQSAGLTCYYNSKNWSYCFVDYEEGQGRTIKVIQLDHNVPSWPLHEQPIPVPEHAESVWLRVDVDTLVYRYSYSFDGETWHTVPVTYEAWKLSDDYIGGRGFFTGAFVGLHCEDISGDGCYADFDYFTYEPVEGHHHHHH,not soluble
19,MSLEKKNASTDEKGYYSNKISLEDLNKNIEDKKEQTIYFYQTSCVHCQKVSPIVVPLAKDLNVDMKVIDIENLNEPWDKYNIQGTPTIIHFKDGKEVSRISGEQSKDKFKEWFEQTKKEGHHHHHH,not soluble
